These results are taken from patent publication US20200147235A1 (AbbVie / Abbott, published 2020).

For assay [1], the target named is T1, Human CD98 ECD with C-terminal His-tag (human, UniProt P08195 105-529).
T1 construct: also called huCD98 ECD; recombinant human CD98 extracellular domain
T1 sequence: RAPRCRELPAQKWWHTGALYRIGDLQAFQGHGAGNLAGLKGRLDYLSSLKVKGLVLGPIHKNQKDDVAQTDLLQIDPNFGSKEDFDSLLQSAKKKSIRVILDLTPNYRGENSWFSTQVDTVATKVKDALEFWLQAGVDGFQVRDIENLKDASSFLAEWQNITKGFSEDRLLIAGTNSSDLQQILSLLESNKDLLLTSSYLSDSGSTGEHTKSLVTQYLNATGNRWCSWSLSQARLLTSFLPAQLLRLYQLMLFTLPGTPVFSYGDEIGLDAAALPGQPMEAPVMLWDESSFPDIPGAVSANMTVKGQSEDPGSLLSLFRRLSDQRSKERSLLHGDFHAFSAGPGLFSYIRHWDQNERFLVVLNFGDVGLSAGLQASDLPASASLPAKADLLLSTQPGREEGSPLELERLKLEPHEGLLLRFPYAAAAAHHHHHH
Nature of the assay: SPR Biacore, anti-Fc capture of mAb, CD98 ECD analyte. The procedure: (§1) The binding kinetics of these purified mouse and rat monoclonal anti-CD98 antibodies for purified recombinant CD98 protein (extracellular domain. ECD) were determined by surface plasmon resonance-based measurements made on Biacore T100/T200 instruments (GE Healthcare, Piscataway, N.J.) at 25° C. using an anti-Fc capture assay approach. Binding kinetic measurements were made in the assay buffer HBS-EP+: 10 mM Hepes, pH 7.4, 150 mM NaCl, 3 mM EDTA, 0.05% Tween 20). For example, approximately 8000 RU of anti-Fc (species specific) polyclonal antibody (Thermo Fisher Scientific Inc. Rockford, Ill.) diluted in 10 mM sodium acetate (pH 4.5) was directly immobilized across a CM5 research grade biosensor chip using a standard amine coupling kit according to manufacturer's instructions and procedures at 25 μg/ml. Unreacted moieties on the biosensor surface were blocked with ethanolamine. The test antibody to be captured as a ligand was diluted in running buffer to ˜0.5 μg/mL and injected over anti-Fc surface at a flow rate of 10 μL/min, CD98 binding and dissociation were observed under a continuous flow rate of 80 μL/min. Human and cynomolgus monkey CD98 ECDs, both with a C-terminal His-tag, are used for this study (Table 3). After each cycle the anti-Fc capture surface was regenerated using 10 mM Glycine-HCl, pH 1.5. During the assay, all measurements were referenced against the capture surface alone (i.e., with no captured test antibody) and buffer-only injections (no antigen) were used for double referencing. For kinetic analysis, rate equations derived from the 1:1 Langmuir binding model were fitted simultaneously, globally and with mass transfer term included to multiple referenced antigen binding curves using Biacore T100T200 Evaluation software.

Assay [2] concerns the target T2, Cynomolgus monkey CD98 ECD with C-terminal His-tag (cynomolgus monkey, UniProt P08195 105-529 (human entry)).
T2 construct: also called cyCD98 ECD; recombinant cynomolgus monkey CD98 extracellular domain
T2 chain: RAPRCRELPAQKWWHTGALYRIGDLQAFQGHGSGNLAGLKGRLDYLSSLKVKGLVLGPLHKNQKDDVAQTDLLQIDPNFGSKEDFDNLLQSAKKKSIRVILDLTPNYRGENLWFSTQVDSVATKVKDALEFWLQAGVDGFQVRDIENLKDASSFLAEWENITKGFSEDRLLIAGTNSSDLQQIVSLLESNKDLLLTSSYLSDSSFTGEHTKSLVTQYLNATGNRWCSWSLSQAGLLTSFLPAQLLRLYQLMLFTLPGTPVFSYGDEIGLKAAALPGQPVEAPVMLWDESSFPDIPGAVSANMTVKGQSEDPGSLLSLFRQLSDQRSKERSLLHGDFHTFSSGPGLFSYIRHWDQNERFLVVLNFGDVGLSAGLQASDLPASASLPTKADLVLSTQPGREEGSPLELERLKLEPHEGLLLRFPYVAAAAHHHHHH
The assay is described as above. The procedure:
as §1

The target in assay [3] is T1, Human CD98 ECD with C-terminal His-tag. In words: SPR Biacore, anti-Fc capture of mAb, CD98 ECD analyte; kd set to assay limit. The procedure: as §1, with “During the assay, all measurements were referenced against the capture surface alone (i.e., with no captured test antibody) and buffer-only injections (no antigen) were used for double referencing. For kinetic analysis, rate equations derived from the 1:1 Langmuir binding model were fitted simultaneously, globally and with mass transfer term included to multiple referenced antigen binding curves using Biacore T100T200 Evaluation software.” left out
A general note: In SPR one partner is held on a chip, and binding of the other changes the refractive index at the surface.

The target of assay [4] is T2, Cynomolgus monkey CD98 ECD with …. Described as above. The procedure:
as §1, with “During the assay, all measurements were referenced against the capture surface alone (i.e., with no captured test antibody) and buffer-only injections (no antigen) were used for double referencing. For kinetic analysis, rate equations derived from the 1:1 Langmuir binding model were fitted simultaneously, globally and with mass transfer term included to multiple referenced antigen binding curves using Biacore T100T200 Evaluation software.” left out

For assay [5], the target named is T3, Human CD98 expressed on stably transfected CHO-K1 cells (human).
T3 construct: also called huCD98; CD98 heavy chain
T3 chain: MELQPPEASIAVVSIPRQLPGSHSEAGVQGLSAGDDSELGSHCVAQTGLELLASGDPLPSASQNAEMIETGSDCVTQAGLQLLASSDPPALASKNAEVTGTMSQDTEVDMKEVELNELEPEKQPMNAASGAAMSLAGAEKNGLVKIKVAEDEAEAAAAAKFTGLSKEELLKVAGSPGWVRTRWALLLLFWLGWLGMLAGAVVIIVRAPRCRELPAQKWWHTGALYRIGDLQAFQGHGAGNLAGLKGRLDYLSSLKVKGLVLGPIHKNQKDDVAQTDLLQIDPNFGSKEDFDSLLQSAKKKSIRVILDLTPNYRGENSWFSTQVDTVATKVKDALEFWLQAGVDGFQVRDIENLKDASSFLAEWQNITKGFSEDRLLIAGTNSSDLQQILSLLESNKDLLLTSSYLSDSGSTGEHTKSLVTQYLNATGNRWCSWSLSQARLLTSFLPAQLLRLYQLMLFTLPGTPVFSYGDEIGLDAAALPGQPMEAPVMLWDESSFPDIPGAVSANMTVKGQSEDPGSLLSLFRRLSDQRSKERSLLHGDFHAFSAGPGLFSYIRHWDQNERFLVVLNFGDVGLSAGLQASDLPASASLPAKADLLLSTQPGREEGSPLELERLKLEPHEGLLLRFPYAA
In words: flow cytometry, CHO-K1 cells expressing human CD98. The procedure: (§2) Briefly, binding kinetics of anti-CD98 chimera mAbs for human and cynomolgus CD98 ECDs were determined by surface plasmon resonance-based measurements as described in Example 4. Table 10 reported the association and dissociation rate constants for CD98 binding, kₐ (M⁻¹s⁻¹) and kd (s⁻¹), and the equilibrium dissociation constant KD (M) of the interaction between antibodies and the target antigen. Binding of anti-CD98 chimera mAbs for CD98 on cell surface was evaluated by flow cytometry against CHO-K1 cell line stably transfected to express human CD98 and 3T12 cell line stably transfected to express cynomolgus monkey CD98.

Assay [6] concerns the target T1, Human CD98 ECD with C-terminal His-tag. Nature of the assay: SPR Biacore, anti-Fc capture of mAb, CD98 ECD analyte. The procedure:
as §1
(§3) Briefly, binding kinetics of anti-CD98 chimera mAbs for human and cynomolgus CD98 ECDs were determined by surface plasmon resonance-based measurements as described in Example 4.
The source holds these as a separate data set.

In assay [7] the target is T2, Cynomolgus monkey CD98 ECD with …. The description is as above. The procedure: as §1, §3
Assay [8] deals with T4, Cynomolgus monkey CD98 expressed on stably transfected 3T12 cells (cynomolgus monkey).
T4 construct: whole, on cells; also called cyCD98
Nature of the assay: flow cytometry, 3T12 cells expressing cynomolgus CD98. The method, then:
as §2
Background: A flow cytometer gives signals particle by particle.

Where two headings read alike, the source gives them in different places.

In general, Kd refers to a measure of binding affinity in units of concentration. Broadly, the kon is the second-order rate constant of association. A word on the koff: it is a measure of how fast the partners let go of each other. By EC50 is commonly meant the concentration at which the effect is half-maximal.

B1: Anti-CD98 murine hybridoma antibody Ab1 (antibody, V domains shown)
VH: EVKLVESGGGLVQPGGSLRLSCATSGFTFTDYYMSWVRQPPGKALEWLGFIRNPANVYTTEYSASVKGRFTISRDNSQSILYLQMNTLRAEDSATYYCARASYGNSEGWFAYWGQGTLVTVSA
VL: DIVMSQSPSSLAVSVGEKVTMSCKSSQNLLYNNNQKNYLAWYQQKPGQSPKLLIYWASTRESGVPDRFTGSGSGTDFTLTISSVKAEDLAVYYCQQYYSYPRTFGGGTKLEIK
As for B1, the values for the Kd in assay [1] and in assay [2] were no more than 0.059 nM and no more than 0.12 nM, respectively. Moreover, the results for the kon in assay [1] and in assay [2] were 85000 M⁻¹ s⁻¹ and 43000 M⁻¹ s⁻¹, respectively. In addition, the koff in assay [3] and in assay [4] was no more than 5e-06 s⁻¹ each time.

B2: Recombinant anti-CD98 chimeric antibody chAb14 (antibody, human IgG1, V domains shown)
VH: EVKLQQSGDELVRPGASVKISCKASGYTFTSYSMHWVKERPGQGLEWIGAIFPIIGTTEYNQKFKGKATLTADKSSNTANMELSRLTSEDSAVYYCARVYLSYFDYWGQGVMVTVSS
VL: DIQMTQSPSFLSASVGDRVTINCKASQNINKYLDWYQRKHGEAPKLLIYNTNNLQTGIPSRFSGSGSGTDYTLTISSLQPEDVATYFCLQHSSRYTFGAGTKLELK
B2 had an EC50 in assay [5] of 3.75 nM. In assay [6], the Kd is 3.9 nM, the koff was 8.4e-05 s⁻¹ and the kon turned out to be 22000 M⁻¹ s⁻¹. Also, in assay [7], the Kd worked out at 110 nM, the koff stood at 0.0014 s⁻¹ and the kon came out at 12000 M⁻¹ s⁻¹. For the same molecule, in assay [8], the EC50 worked out at 18 nM.

B3: Recombinant anti-CD98 chimeric antibody chAb11 (antibody, human IgG1, V domains shown)
VH: EVQLVESGGGLVQPGRSLKLSCAASGFTFSDYAMAWVRQAPKKGLEWVAGIIYDGRGTYYRDSVKGRFTISRDNAKSTLYLQMDSLRSEDTATYYCARQGDGTYYYWGYFDYWGQGVMVTVSS
VL: DIVMTQSPSSLAVSAGETVTINCRSSQSLLSSGNQKNYLAWYQQKPGQSPKLLIYWASTRQSGVPDRFIGSGSGTDFTLTISSVQAEDLAIYYCQQYYDTPYTFGAGTKLELK
For B3, in assay [5], the response was half-maximal at 4.57 nM (EC50). Also, in assay [6], the Kd amounted to 28 nM, the koff stood at 0.0013 s⁻¹ and the kon turned out to be 45000 M⁻¹ s⁻¹. In assay [7], this molecule came in with a Kd of 110 nM, a koff of 0.002 s⁻¹ and a kon of 18000 M⁻¹ s⁻¹. In assay [8], this molecule displayed an EC50 of 16.9 nM.
